The text below walks through data of article PMC10075959 (Science Advances, 2023).

Series [1] deals with the molecule itself. Briefly: AUC + other: circular dichroism. (Circular dichroism is widely used to follow secondary structure.)
Series [2] deals with the molecule itself. Briefly: AUC + other: circular dichroism. This is another data set of the same source.
The series “AUC” deals with the molecule itself. The series can be described thus: AUC.

Read-outs that look alike come from different tables or passages of the source.

B1: NL63 nucleocapsid LRS peptide 174-210 (peptide)
peptide: TRSDSNQSSSDLVAAVTLALKNLGFDNQSKSPSSSGT
notes: also called human coronavirus NL63
For the protein B1, in series [1], the Kd came to 140 µM.

B2: SARS-CoV-1 nucleocapsid LRS peptide 211-242 (peptide)
peptide: MASGGGETALALLLLDRLNQLESKVSGKGQQQ
In the case of B2, the dissociation constant (Kd) in series [1] was 500 µM.

B3: MHV nucleocapsid LRS peptide 223-255 (peptide)
peptide: RQPASTVKPDMAEEIAALVLAKLGKDAGQPKQV
notes: also called murine hepatitis virus
For B3, the Kd in series [1] was determined as 800 µM.

B4: MERS nucleocapsid LRS peptide 197-238 (peptide)
peptide: not shown
In the case of B4, the Kd in series [1] was 110 µM.

B5: 229E-related bat coronavirus nucleocapsid LRS peptide 170-221 (peptide)
peptide: NERLPKSNSKQSNQDDIMAAVAAALEKLGFERPNDASQPQKKQNKGTPKPSR
In the case of B5, in series [1], the dissociation constant (Kd) is 290 µM.

B6: SARS-CoV-2 N-protein leucine-rich sequence peptide N:210-246 (NLRS) (peptide)
chain: MAGNGGDAALALLLLDRLNQLESKMSGKGQQQQGQTV
As to B6, in series [2], the Kd was found to be 810 µM. Also, in the series “AUC”, the “stoichiometry N” value was 3.

Broadly, the Kd is the free concentration of one partner at which half of the binding sites on the other are occupied at equilibrium, for simple one-to-one binding. Broadly, the stoichiometry N is a count of units in the complex or per binding partner.
